For the test, the target named is T1, His-mNeon-tagged EBP50 PDZ1-PDZ2 fragment (human, UniProt O14745-1 1-298).
T1 sequence (looked up): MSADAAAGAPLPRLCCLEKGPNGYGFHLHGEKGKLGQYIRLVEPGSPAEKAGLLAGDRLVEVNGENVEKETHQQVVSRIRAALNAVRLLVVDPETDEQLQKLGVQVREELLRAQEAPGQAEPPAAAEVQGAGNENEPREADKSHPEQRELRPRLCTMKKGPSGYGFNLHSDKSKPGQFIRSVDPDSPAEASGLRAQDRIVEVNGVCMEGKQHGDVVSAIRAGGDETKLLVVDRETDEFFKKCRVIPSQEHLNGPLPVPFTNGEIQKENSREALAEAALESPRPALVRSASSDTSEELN
The test can be described thus: pull-down.

B1: GST-CDHR5 CD (GST fusion of the cytoplasmic tail of CDHR5) (domain or fragment, human, UniProt Q9HBB8-1 697-845, looked up)
chain: RLKCCCGKAPEPQPQGFDNQAFLPDHKANWAPVPSPTHDPKPAEAPMPAEPAPPGPASPGGAPEPPAAARAGGSPTAVRSILTKERRPEGGYKAVWFGEDIGTEADVVVLNAPTLDVDGASDSGSGDEGEGAGRGGGPYDAPGGDDSYI
As for B1, the binding result is given as “binds”.

(Values after article PMC10916864 (Molecular Biology of the Cell, 2024).)
